B1: Yersinia enterocolitica urease ureC protein (enzyme)
chain: MPQISRQEYAGLFGPTTGDKIRLGDTNLFIEIEKDLRGYGEESVYGGGKSLRDGMGANNHLTRDNGVLDLVITNVTIVDARLGVIKADVGIRDGKIAGIGKSGNPGVMDGVTPGMVVGVSTDAISGEHLILTAAGIDSHIHLISPQQAYHALSNGVATFFGGGIGPTDGTNGTTVTPGPWNIRQMLRSVEGLPVNVGILGKGNSYGRGPLLEQAIAGVVGYKVHEDWGATANALRHSLRMADEMDIQVSVHTDSLNECGYVEDTIDAFEGRTIHTFHTEGAGGGHAPDIIRVASQPNVLPSSTNPTLPYGVNSQAELFDMIMVCHNLNPNVPADVSFAESRVRPETIAAENVLHDMGVISMFSSDSQAMGRVGENWLRVMQTANAMKASRGKLPEDAPGNDNFRVLRYVAKITINPAIAQGVSHVIGSVEVGKMADLVLWDPRFFGAKPKMVIKGGMINWAAMGDPNASLPTPQPVFYRPMFGAMGKTMQDTCVTFVSQAALDDGVKEKAGLDRQVIAVKNCRTISKHDLVRNDQTPNIEVDPETFAVKVDGVHATCEPIDTAAMNQRYFFG
modifications: carbamylated Lys222
notes: urease chain ureC of Yersinia enterocolitica; residues 2-327 and 335-572 were built in the cryo-EM model; Native enzyme purified from the bacterium, with two Ni2+ ions in the active site; also called α-subunit containing the active site; source: purified from Y. enterocolitica cultures (Sephacryl S-300, Mono Q, SEC)

Legend:
[1] = molecular target: B1; test: cryo-EM structure; single-particle cryo-EM of purified urease at 0.39 mg/ml, frozen in a buffer of pH 7.0; tetrahedral (T) symmetry imposed; map at 1.98 Å; no substrate or inhibitor; conditions: both partners purified
[2] = molecular target: the molecule itself; test: as above

Binder	binding result [1]	binding result [2]	stoichiometry N [2]
Yersinia enterocolitica urease ureB protein (natural protein, urease chain ureB of Yersinia enterocolitica; residues 31-162 were built in the cryo-EM model; the N-terminal extension was too disordered to be modelled; Native enzyme purified from the bacterium; source: purified from Y. enterocolitica cultures (Sephacryl S-300, Mono Q, SEC)) MSTKTNSTKATSEKTDSLKTNRGTKSSAGYSDQNIPLGGCILADTPITFNENKPVTKVKVRNTGDRPIQVGSHFHFFEANRALEFDRAAAYGKRLNISSTTAIRFEPGDETEVPLIPFGGKQTLYGFNNLVDGWTGEGVVPNSERPDKLEAIRRAAERGFKSSK	binds	binds	–
Yersinia enterocolitica urease ureA protein (natural protein, urease chain ureA of Yersinia enterocolitica; all residues of ureA (1-100) were built in the cryo-EM model; Native enzyme purified from the bacterium; source: purified from Y. enterocolitica cultures (Sephacryl S-300, Mono Q, SEC)) MQLTPREVEKLMIYTLSDVAFKRKARGLKLNYPEAVSIITETAMEGARDGKSVEDVMKEASKVLTKDDVMDGVADLIPNVQVEAIFTDGSRLVTVHDPIK	binds	binds	–
B1	–	binds	–
Y. enterocolitica urease hetero-trimer formed by the three protein chains (ureA, ureB, ureC) (complex, carbamylated Lys222, urease chain ureA of Yersinia enterocolitica, as m1; residues 1-100 built; urease chain ureB of Yersinia enterocolitica, as m2; residues 31-162 built; urease chain ureC of Yersinia enterocolitica, as m3; residues 2-327 and 335-572 built; The asymmetric unit holds one copy each of ureA, ureB and ureC; Twelve such units form the holoenzyme, [[αβγ]3]4, with tetrahedral symmetry; also called basic …) chain 1: MQLTPREVEKLMIYTLSDVAFKRKARGLKLNYPEAVSIITETAMEGARDGKSVEDVMKEASKVLTKDDVMDGVADLIPNVQVEAIFTDGSRLVTVHDPIK chain 2: MSTKTNSTKATSEKTDSLKTNRGTKSSAGYSDQNIPLGGCILADTPITFNENKPVTKVKVRNTGDRPIQVGSHFHFFEANRALEFDRAAAYGKRLNISSTTAIRFEPGDETEVPLIPFGGKQTLYGFNNLVDGWTGEGVVPNSERPDKLEAIRRAAERGFKSSK chain 3: MPQISRQEYAGLFGPTTGDKIRLGDTNLFIEIEKDLRGYGEESVYGGGKSLRDGMGANNHLTRDNGVLDLVITNVTIVDARLGVIKADVGIRDGKIAGIGKSGNPGVMDGVTPGMVVGVSTDAISGEHLILTAAGIDSHIHLISPQQAYHALSNGVATFFGGGIGPTDGTNGTTVTPGPWNIRQMLRSVEGLPVNVGILGKGNSYGRGPLLEQAIAGVVGYKVHEDWGATANALRHSLRMADEMDIQVSVHTDSLNECGYVEDTIDAFEGRTIHTFHTEGAGGGHAPDIIRVASQPNVLPSSTNPTLPYGVNSQAELFDMIMVCHNLNPNVPADVSFAESRVRPETIAAENVLHDMGVISMFSSDSQAMGRVGENWLRVMQTANAMKASRGKLPEDAPGNDNFRVLRYVAKITINPAIAQGVSHVIGSVEVGKMADLVLWDPRFFGAKPKMVIKGGMINWAAMGDPNASLPTPQPVFYRPMFGAMGKTMQDTCVTFVSQAALDDGVKEKAGLDRQVIAVKNCRTISKHDLVRNDQTPNIEVDPETFAVKVDGVHATCEPIDTAAMNQRYFFG	–	–	12

From publication PMC7547064, “High-resolution cryo-EM structure of urease from the pathogen Yersinia enterocolitica” (Nature Communications, 2020)
